The source of these data is publication PMC8951703.

In general, Kd refers to the concentration at which binding is half-saturated.

In one assay the target is fibronectin (UniProt P02751). Description: SPR; plasminogen or fibronectin immobilised on CM5 chips by amine coupling (600 RU); recombinant enolase proteins 0-4000 nM injected at 30 uL/min for 180 s, 20 °C, dissociation 1000 s; 10 mM HEPES, 150 mM NaCl, 3 mM EDTA, 0.05% surfactant P20; Biacore X100.
In a further assay the target is plasminogen. Described as above.
For assay [1], the target named is Recombinant M. hyorhinis enolase K452L (Mycoplasma hyorhinis (strain HUB-1)) (UniProt P0DXB0).
Assay [2] deals with Recombinant M. hyorhinis enolase K451L-K452L (Mycoplasma hyorhinis (strain HUB-1)) (UniProt P0DXB0).
In assay [3] the target is Recombinant M. hyorhinis enolase K451L (Mycoplasma hyorhinis (strain HUB-1)) (UniProt P0DXB0).

fibronectin, sequence (P02751 32-2477): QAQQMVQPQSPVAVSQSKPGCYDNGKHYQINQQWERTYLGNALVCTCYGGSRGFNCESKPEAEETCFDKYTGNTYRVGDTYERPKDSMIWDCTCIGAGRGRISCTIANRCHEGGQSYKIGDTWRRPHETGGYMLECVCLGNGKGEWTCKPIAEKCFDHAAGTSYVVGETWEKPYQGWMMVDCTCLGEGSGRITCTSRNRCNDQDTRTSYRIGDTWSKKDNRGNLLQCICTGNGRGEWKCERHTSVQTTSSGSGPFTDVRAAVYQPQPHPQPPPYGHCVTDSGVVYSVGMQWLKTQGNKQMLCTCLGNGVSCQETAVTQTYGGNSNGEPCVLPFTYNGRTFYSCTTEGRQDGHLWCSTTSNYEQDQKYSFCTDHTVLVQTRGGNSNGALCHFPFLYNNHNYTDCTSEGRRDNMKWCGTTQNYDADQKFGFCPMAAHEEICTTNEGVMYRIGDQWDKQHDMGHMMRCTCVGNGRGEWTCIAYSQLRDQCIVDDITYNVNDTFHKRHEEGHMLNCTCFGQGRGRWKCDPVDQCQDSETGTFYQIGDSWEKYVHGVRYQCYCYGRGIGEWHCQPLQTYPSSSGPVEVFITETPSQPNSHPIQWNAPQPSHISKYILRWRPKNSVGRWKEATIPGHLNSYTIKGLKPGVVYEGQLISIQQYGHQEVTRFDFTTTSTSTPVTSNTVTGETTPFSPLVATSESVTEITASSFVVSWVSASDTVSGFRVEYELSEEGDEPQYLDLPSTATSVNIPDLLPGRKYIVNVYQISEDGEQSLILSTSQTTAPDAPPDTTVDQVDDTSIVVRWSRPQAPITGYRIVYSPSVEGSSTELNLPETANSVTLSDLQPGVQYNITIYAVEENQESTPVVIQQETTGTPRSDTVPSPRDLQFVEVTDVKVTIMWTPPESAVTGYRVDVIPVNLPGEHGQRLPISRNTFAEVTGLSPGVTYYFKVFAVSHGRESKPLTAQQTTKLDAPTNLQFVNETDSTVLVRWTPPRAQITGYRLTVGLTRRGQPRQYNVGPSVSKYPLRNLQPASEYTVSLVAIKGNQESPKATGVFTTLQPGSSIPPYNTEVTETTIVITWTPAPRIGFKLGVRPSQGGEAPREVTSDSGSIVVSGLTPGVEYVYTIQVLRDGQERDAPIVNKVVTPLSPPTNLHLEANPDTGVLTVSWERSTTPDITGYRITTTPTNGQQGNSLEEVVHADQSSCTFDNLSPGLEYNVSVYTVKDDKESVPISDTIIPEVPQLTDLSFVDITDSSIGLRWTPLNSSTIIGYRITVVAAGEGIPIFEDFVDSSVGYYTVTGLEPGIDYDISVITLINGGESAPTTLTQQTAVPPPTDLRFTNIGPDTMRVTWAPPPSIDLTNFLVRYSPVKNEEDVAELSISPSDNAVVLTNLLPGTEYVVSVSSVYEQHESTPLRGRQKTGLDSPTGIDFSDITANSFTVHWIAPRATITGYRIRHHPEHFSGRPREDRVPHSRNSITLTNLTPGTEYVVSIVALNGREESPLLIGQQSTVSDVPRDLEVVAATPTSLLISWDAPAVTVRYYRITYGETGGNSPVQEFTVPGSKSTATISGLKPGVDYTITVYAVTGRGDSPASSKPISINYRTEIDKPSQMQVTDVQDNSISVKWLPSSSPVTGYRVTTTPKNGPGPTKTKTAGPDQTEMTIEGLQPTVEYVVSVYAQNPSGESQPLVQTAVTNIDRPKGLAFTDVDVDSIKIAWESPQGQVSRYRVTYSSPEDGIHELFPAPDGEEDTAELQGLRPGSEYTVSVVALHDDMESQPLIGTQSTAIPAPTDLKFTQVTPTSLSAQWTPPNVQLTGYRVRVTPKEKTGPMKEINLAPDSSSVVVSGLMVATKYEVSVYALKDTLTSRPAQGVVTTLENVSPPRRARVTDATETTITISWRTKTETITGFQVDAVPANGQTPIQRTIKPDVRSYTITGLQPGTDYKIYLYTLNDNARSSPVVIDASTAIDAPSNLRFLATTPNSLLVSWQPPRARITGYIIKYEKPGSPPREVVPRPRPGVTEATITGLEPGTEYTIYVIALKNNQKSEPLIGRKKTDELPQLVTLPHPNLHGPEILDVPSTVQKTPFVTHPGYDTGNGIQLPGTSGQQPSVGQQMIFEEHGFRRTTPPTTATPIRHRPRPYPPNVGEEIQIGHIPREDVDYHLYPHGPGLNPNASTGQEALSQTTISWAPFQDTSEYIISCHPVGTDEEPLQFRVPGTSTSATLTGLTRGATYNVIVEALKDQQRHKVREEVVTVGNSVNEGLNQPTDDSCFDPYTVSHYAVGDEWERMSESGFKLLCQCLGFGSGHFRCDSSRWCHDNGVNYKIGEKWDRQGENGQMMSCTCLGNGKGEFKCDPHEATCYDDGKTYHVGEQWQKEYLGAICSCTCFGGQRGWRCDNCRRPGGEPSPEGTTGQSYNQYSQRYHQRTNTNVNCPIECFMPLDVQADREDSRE

“Recombinant M. hyorhinis enolase K451L (from UniProt P0DXB0 1-450) (enzyme)”: the Kd with fibronectin turned out to be 77.9 nM; with plasminogen, 28 nM.
On to plasminogen (natural protein), for which the plasmin activity (OD 405 nm) of plasminogen held in wells coated with the mutant, after tPA, compared with WT rEno-bound plasminogen (printed percent, seemingly the decrease) in assay [1] amounted to 30.5%; in assay [2], 50.1%; in assay [3], 39.5%.
Turning to “Recombinant M. hyorhinis enolase K451L-K452L (from UniProt P0DXB0 1-450) (enzyme)”, the Kd with fibronectin is 75.2 nM; with plasminogen it was 59.4 nM.
Turning to “Recombinant M. hyorhinis enolase, wild-type (from UniProt P0DXB0 1-450) (enzyme; other documents disagree on this pair)”, in the assay with fibronectin, the Kd was found to be 14.3 nM.
As to “Recombinant M. hyorhinis enolase K452L (from UniProt P0DXB0 1-450) (enzyme)”, the Kd worked out at 70.5 nM with fibronectin and 15.8 nM with plasminogen.
